# Data: the DeepSol protein solubility set
# Experiment: soluble on expression in E. coli; label from the status in PepcDB or PDB records
row,Sequence,soluble on expression in E. coli
1,QTVAIKMGADNGMLAFEPSTIEIQAGDTVQWVNNKLAPHNVVVEGQPELSHKDLAFSPGETFEATFSEPGTYTYYCEPHRGAGMVGKIVVQ,soluble
2,EIQMTQTTSSLSASLGDRVTISCRASQDISNFLNWYQQKPDGTVKLLIYYTSTLHSGVPSRFSGSGSGTDYSLTISNLEQEDIATYFCQQGKTLPPTFGGGTKLEIKRADAAPTVSIFPPSSEQLTSGGASVVCFLNNFYPKEINVKWKIDGSERQNGVLDSWTEQDSKDSTYSMSSTLTLTKDEYERHNSYTCEATHKTSTSPIVKSFNRNEC,soluble
3,MSFQEIPIIDLQEAFDPATRSKFLEEVRDAIINVGFLLLKNYESLGPTEEDLQSIKQQAIEFFALPAKEKLQCEMLNSPHFLGYTRLANEITASHTDWREQIDLATELPAPKEGEPLYKNIEGPNLWPNPEVIPKFRPTIERFIEKMTALSNVFKDLVAESIGVDPKALNRYFKENQQCKMKLIAYPDVSELDGTKSAALDDTPETNQGVEPHRDSDLITYIYQATEHQNSLQVQNFQGHWITVPNIPGHLVVNNGQTLQAITGGVAKATIHRVLVPEKGTGTRISIPFFQTIDLDSSKGVVDNLPQEVIDLKNERDKKIKDWGVDTGFQFEPDVSKEPIGHAVFRNRIKSHQDVAKKWYPDVLKSVLQEYTH,soluble
4,MALFGKKSSDSSKSVAVPKAFTIQIDPSKFNLATKPSGPVHEQLETLKQKLTKLSSNVENNLMLVIRASTKKDKALASSAFEFDERYIQKGKFEVEYLTLAYLNFQQLDEADRKTVAHARMILKELERIAQFCLNIADKTEYIQLANIQVLHKDEYDLKLMGDDTAEMIKKAVEAFVSGNSKHATETLDMMKKIDDLYQKAVAKLKAEVNDSNIINSTGILSVVEHVHTCAEISCAIARHFC,soluble
5,MDDVLDRIMGSAPSQSGSSLNRTPKRDHRSNPDMHEPSSKRSAPMFTTPKSATPIGRDSFATLDTLNVQMNMFTMDIKDMPHKLQRLQVDVIICSSNGKQINVNLGVLAAKGDVNSHNRRLAQFFIMRAVHDKLPEKFSGKSHHFLAYDCAATLYVPEGVYTGDAEEQVTLKIDDFPKDEWKIVSKLSRRKDDSYLVTLKPAGFVHTQGEHARAEANRMELTRCVEIITSQMLNNEDYYQFANCPNREAVAVDEVVTAEASPEIHVEVTVAAVLIQEIIVEVTATEVERYRDESRGCRDMNDSRRDSSNGVDYSPSDAAEVEKALGERGSTKRFIEDALKGLDVECTRLKGNLIRVCSIAENNAENTSFMMKGDKGEQEITVVQYFQLQYNIKLKHSRLPLVVSKRFKHESFFPMELLQIAPGQRIKVNKMSPTVQSSMTGMNASMPEQHVKLVQNILIDNLKLKQSKYMDAFGIRLMSTKPLQLPAKLLPPAQIKFKNQTYMPEMSRPAFRTQDKFVQPAHIGRIGVVVFDNCIQMRQAESFCDNLAAICRDNGIKIDQDSRDWTICEINSSDAAGIQNRMRKWADDKVDILFAITREKKPDVHDILKYYEESIGLQTIQVCQQTVDKMMGGGGGRQTIDNVMRKFNLKCGGTNFFDEIPSSVRGRAVCSNSETLSKKLFEHVQFIGFEISHGAARTLFDRSRSQLDGEPSVVGVSYSLTNSTQLGGFTYLQTQKEYKLQKLGEVFPKCVQSYKEHSRRLPTRIVIYRVGAGEGDFKRVKEEIEEIRGTFDKIQPGYRPHLVVVIAQIASHARVFPSNITGRKAMEQNVPSGTCVDNVPTSYGYDEFILSSRTPLIGTVRPCKYTILINDANWSKNEIMHLTYFRAFGHQVSYKPPSVPDVLYAAENLAKRGRNNYKIHQRHVNLQAVENSIIGDHSELINEDMREELAAAIVDHMSVAMNGMTISKRNFWA,not soluble
6,ELQVLDTWQGDVVRDTKTLSGGESFLVSLALALALSDLVSHKTSIDSLFLDEGFGTLDSETLDMALDALDNLNASGKMIGVISHIEAMKERIPVQIKVTKRSGLGVSELEKQYKKVS,not soluble
7,MPPPIAFNASARKSQSVNQSDVMMMSDPSHVDIIKSNSHTTRIAVNLVSEPESRLKLHGEDARMSWTVLLLVFRATTIATRNNVPELDRELAR,not soluble
8,MSQTVNIVGAGLAGSEAAYQLAQRGIKVNLIEMRPVKQTPAHHTDKFAELVCSNSLRGNALTNGVGVLKEEMRRLDSLIISAADKARVPAGGALAVDRHDFSGYITETLRNHPNVTVINEEINSIPEGYTIIATGPLTTENLAKEIVDITGKDQLYFYDAAAPIIEKESIDMDKVYLKSRYDKGEAAYLNCPMTEEEFNRFYDAVLEAEVAPTNEFEKEKYFEGCMPFEVMAERGRKTLLFGPMKPVGLEDPKTGKRPFAVVQLRQDDAAGTLYNIVGFQTHLKWGAQKEVIRLIPGLENVDIVRYGVMHRNTFINSPDVLNEKYELIKEDRIQFAGQMTGVEGYVESAASGLVAGINLAHKLLDKGEVIFPRETMIGSMAYYISHAKNEKNFQPMNANFGLLPSLEKRIKDKKERYEAQANRALEYLENYKKTLLEHHHHHH,soluble
9,MGSDKIHHHHHHMVRLAVVGLGKMGLSHYAMINAHPDVKVEAVCDSTGYVLDVLNKYTGVRTYTDFDVMLRDIELDAVIIATPSRSHGQMVEVALNENLHVFCEKPFCLDITEGERLARIAAERGLVNQVGYHNRFVGAFQEVKRLLDAGAIGAVTHVLAEAYGPVVLKPKGSTWRTQRTEGGGCLYDYAAHPINLVNWYLGAPQSVGGSVLNKIFSKDTEDEVFSTLYYEEGKSVQISVNWSDESYRKMTTKVTIWGTQGRIYADRQECQVYIRDGVNIPAGYQRGWNVRYTTDLTEAVWFYLRGEEYSAQLDYFVRCIEEKEGGGNINSFEEAVITDRVMSMMVADAEKRPPVTSGIAPRQAPGKKFGLLFGGRKAVS,not soluble
10,MSHQDDYLSVEELIEIQKEETRDIIQALLEDGSDPDALYEIEHHLFAEDFDKLEKAAVEAFKMGFEVLEAEETEDEDGNKLLCFDATMQSALDAKLIDEQVEKLVNLAEKFDIIYDGWGTYYEGLEHHHHHH,soluble
11,MRNRTLADLDRVVALGGGHGLGRVLSSLSSLGSRLTGIVTTTDNGGSTGRIRRSEGGIAWGDMRNCLNQLITEPSVASAMFEYRFGGNGELSGHNLGNLMLKALDHLSVRPLEAINLIRNLLKVDTHLIPMSEHPVDLMAIDDQGHEVYGEVNIDQLTTPIQELLLTPNVPATREAVHAINEADLIIIGPGSFYTSLMPILLLKEIAQALRRTPAPMVYIGNLGRELSLPAANLKLESKLAIMEQYVGKKVIDAVIVGPKVDVSAVKERIVIQEVLEASDIPYRHDRQLLHNALEKALQALGLEHHHHHH,not soluble
12,MHDANIRVAIAGAGGRMGRQLIQAALALEGVQLGAALEREGSSLLGSDAGELAGAGKTGVTVQSSLDAVKDDFDVFIDFTRPEGTLNHLAFCRQHGKGMVIGTTGFDEAGKQAIRDAAADIAIVFAANFSVGVNVMLKLLEKAAKVMGDYTDIEIIEAHHRHKVDAPSGTALAMGEAIAHALDKDLKDCAVYSREGHTGERVPGTIGFATVRAGDIVGEHTAMFADIGERLEITHKASSRMTFANGAVRSALWLSGKESGLFDMRDVLDLNNL,soluble
13,MSSAWKTPRGSDAMPEIMVKIIGSKHFQYLVEKPKIKENDSLKTETQTMHQKPMTDNARQMSRDTPVPINFTDQQTTDNPDDVKEKKHPENNQKSENNQKLLTGANSSRFLDGNIPSQANVHCSSVPTGDQSLSYVHGIPRRKLRDWSLEQMVRGSSDQPEDIGQSPSGTTNEDAFLLALVRRELKSRPLSSNLLEKLQKELKILDPISSGFLLQSQLSRLFLKHEVPLQLPTVKILCQRFSKRGSPEMVNYEKLLWFLNSAASDYPQQNKAAADLRKTESHGTHSQSTPPQHSSSQPEVNRSLLEILKMALRTTNGRLNIDNLNLSFRKEDRSFSGCLPLPKVRAICGKHGLYLTLSLLETLLNHQDLGYQNEIKWQNFVEMLTRASSDLLSDLPTGKNEKKAPAPPMEPEVPEMSQSKTEHMKTPEEELQPESSPAETSACKDPLKPLKIRPVSQPFVNPAVKNKAEECETWIDRFRKLENALYLCDLSNTGVLEKERARRLIHNYNLIYNLSLSPQKIDQALRRFRSGENMLLEPALRYLKEL,not soluble
